Reference: doi:10.1101/2025.03.13.642734

Target: ExsA-His6 (Pseudomonas aeruginosa) (UniProt P26993)
Sequence of UniProt P26993 (P26993 whole entry): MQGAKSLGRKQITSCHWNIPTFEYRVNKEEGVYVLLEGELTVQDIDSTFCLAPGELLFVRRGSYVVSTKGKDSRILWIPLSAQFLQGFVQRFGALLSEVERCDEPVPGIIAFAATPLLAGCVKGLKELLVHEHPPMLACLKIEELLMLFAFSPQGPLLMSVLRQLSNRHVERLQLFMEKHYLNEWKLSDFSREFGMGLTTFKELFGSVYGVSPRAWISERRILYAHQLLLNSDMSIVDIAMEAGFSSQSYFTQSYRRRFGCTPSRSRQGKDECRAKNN

Substance: GST-Dap2 (natural protein)
- EMSA: ExsA-exsC promoter DNA complex with increasing concentrations of GST-Dap2: 1 µM
